# According to patent US20040254347:
# “Also recorded” adds a separate entry of the source.
# T1: Fusion Protein No:1 (GST fused with insert SEQ ID NO:2)
# T1 chain: QIKS
# T2: Fusion protein FP#2 (GST fused with insert SEQ ID NO:3)
# T2 chain: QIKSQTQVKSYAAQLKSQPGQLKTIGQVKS
# T3: Fusion protein FP#3 (GST fused with insert SEQ ID NO:4)
# T3 chain: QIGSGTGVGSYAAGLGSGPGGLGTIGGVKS
# B1: mouse coagulating gland transglutaminase (TG4) (protein)
# chain: MDSRNVLIIYAVNVERKLNAAAHHTSEYQTKKLVLRRGQIFTLKVILNRPLQPQDELKVTFTSGQRDPPYMVELDPVTSYRSKGWQVKIAKQSGVEVILNVISAADAVVGRYKMRVNEYKAGVFYLLFNPWCSDDSVFMASEEERAEYILNDTGYMYMGFAKQIKEKPWTFGQFEKHILSCCFNLLFQLENNEMQNPVLVSRAICTMMCAANGGVLMGNWTGDYADGTAPYVWTSSVPILQQHYVTRMPVRYGQCWVFSGILTTALRAVGIPARSVTNFESAHDTEKNLTVDIYLDESGKTIPHLTKDSVWNFHVWTDAWMKRQDLPHGYDGWQVLDSTPQEISDGGFRTGPSPLTAIRQGLIQMKYDTTFVFTEVNGDKFIWLVKQNQEREKNILIAVETASLGKKISTKMVGENRREDITLQYRFPEGSPEERKVMAKASGKPSDDKLNSRTLNNSLQISVLQNSLELGAPIYLTITLKRKTATPQNVNISCSLNLQTYTGNKKTNLGVIQKTVQIHGQESRVFLTMDASYYIYKLGMVDDEMVIGGFIIAEIVDSGERVATDTTLCFLYSAFSVEMPSTGKVKQPLVITSKFTNTLPIPLTNIKFSVESLGLANMKSWEQETVPPGKTITFQMECTPVKAGPQKFIVKFISRQVKEVHAEKVVLISK
# B2: Thrombin-activated factor XIII (human blood factor XIII) (protein)
# chain: GVNLQEFLNVTSVHLFKERWDTNKVDHHTDKYENNKLIVRRGQSFYVQIDFSRPYDPRRDLFRVEYVIGRYPQENKGTYIPVPIVSELQSGKWGAKIVMREDRSVRLSIQSSPKCIVGKFRMYVAVWTPYGVLRTSRNPETDTYILFNPWCEDDAVYLDNEKEREEYVLNDIGVIFYGEVNDIKTRSWSYGQFEDGILDTCLYVMDRAQMDLSGRGNPIKVSRVGSAMVNAKDDEGVLVGSWDNIYAYGVPPSAWTGSVDILLEYRSSENPVRYGQCWVFAGVFNTFLRCLGIPARIVTNYFSAHDNDANLQMDIFLEEDGNVNSKLTKDSVWNYHCWNEAWMTRPDLPVGFGGWQAVDSTPQENSDGMYRCGPASVQAIKHGHVCFQFDAPFVFAEVNSDLIYITAKKDGTHVVENVDATHIGKLIVTKQIGGDGMMDITDTYKFQEGQEEERLALETALMYGAKKPLNTEGVMKSRSNVDMDFEVENAVLGKDFKLSITFRNNSHNRYTITAYLSANITFYTGVPKAEFKKETFDVTLEPLSFKKEAVLIQAGEYMGQLLEQASLHFFVTARINETRDVLAKQKSTVLTIPEIIIKVRGTQVVGSDMTVTVEFTNPLKETLRNVWVHLDGPGVTRPMKKMFREIRPNSTVQWEEVCRPWVSGHRKLIASMSSDSLRHVYGELDVQIQRRPSM
# B3: tissue transglutaminase from guinea pig's liver (protein)
# chain: AEDLILERCDLQLEVNGRDHRTADLCRERLVLRRGQPFWLTLHFEGRGYEAGVDTLTFNAVTGPDPSEEAGTMARFSLSSAVEGGTWSASAVDQQDSTVSLLLSTPADAPIGLYRLSLEASTGYQGSSFVLGHFILLYNPRCPADAVYMDSDQERQEYVLTQQGFIYQGSAKFINGIPWNFGQFEDGILDICLMLLDTNPKFLKNAGQDCSRRSRPVYVGRVVSAMVNCNDDQGVLQGRWDNNYSDGVSPMSWIGSVDILRRWKDYGCQRVKYGQCWVFAAVACTVLRCLGIPTRVVTNFNSAHDQNSNLLIEYFRNESGEIEGNKSEMIWNFHCWVESWMTRPDLEPGYEGWQALDPTPQEKSEGTYCCGPVPVRAIKEGHLNVKYDAPFVFAEVNADVVNWIRQKDGSLRKSINHLVVGLKISTKSVGRDEREDITHTYKYPEGSEEEREAFVRANHLNKLATKEEAQEETGVAMRIRVGQNMTMGSDFDIFAYITNGTAESHECQLLLCARIVSYNGVLGPVCSTNDLLNLTLDPFSENSIPLHILYEKYGDYLTESNLIKVRGLLIEPAANSYVLAERDIYLENPEIKIRVLGEPKQNRKLIAEVSLKNPLPVPLLGCIFTVEGAGLTKDQKSVEVPDPVEAGEQAKVRVDLLPTEVGLHKLVVNFECDKLKAVKGYRNVIIGPA
# Assays:
# [1] = target: T1, Fusion Protein No:1 (GST fused with …)
# [2] = target: T2, Fusion protein FP#2 (GST fused with …)
# [3] = target: T3, Fusion protein FP#3 (GST fused with …)
Protein,"cross-linking by transglutaminase, SDS-PAGE [1]","cross-linking by transglutaminase, SDS-PAGE [2]","cross-linking by transglutaminase, SDS-PAGE [3]"
B1,"FP#1, with the essential sequence of QXKS/T, is a good substrate of transglutaminases from different sources",,
B2,"FP#1, with the essential sequence of QXKS/T, is a good substrate of transglutaminases from different sources",,
B3,"FP#1 was cross-linked to a dimer by the enzyme reaction; also recorded: FP#1, with the essential sequence of QXKS/T, is a good substrate of transglutaminases from different sources",the enzyme-catalyzed cross-links of FP#2 were very striking ... There were almost no FP#2 monomer left after the enzyme reaction,the enzyme was able to cross-link FP#3
